Results reported in patent US12496346B2, “Phospholipid-flavagline conjugates and methods of using the same for targeted cancer therapy” (Cellectar Biosciences, Inc., priority 2019, dated 2025).
Where two headings read alike, the source gives them in different places.

Experiments:
[1] = test system: A549 (human lung adenocarcinoma); assay: cells; type: cell-based; details: for Therapeutic Index (TI), second value in parentheses: from the NHDF value in parentheses
in vivo = type: in vivo, mice
Procedure: Listed in Table 5 are the doses administered to the mice, and how many mice were alive after treatment (“3/3” indicates 3 out of 3 mice were alive). […] MTD for CLR 1865 was between 5 and 10 mg/kg.

[2] = test system: HCT 116 cells (human colon cancer); type: in vivo; details: three doses of 1 mg/mg each, FIG. 9
in vitro [3] = details: human, plasma
Procedure: (§1) A small amount of molecule was exposed to plasma, and the plasma was then analyzed via HPLC or MS to determine if the molecule was degraded.

in vitro [4] = details: mouse, plasma
Procedure: as §1

Plasma stability [5] = assay: Plasma stability
Procedure: as §1

Plasma stability [6] = assay: Plasma stability; remark: listed apart in the source
Procedure: as §1

[7] = test system: Colorectal (HCT-116) tumor; assay: In vivo imaging of targeted delivery; parameters: species or system nude mouse
Procedure: Initial targeting noted within 30 minutes (not shown).

| Compound | Therapeutic Index (TI), second value in parentheses ([1]; in vitro) | mice alive after treatment (in vivo; Dose 0.1 mg/kg) | mice alive after treatment (in vivo; Dose 0.25 mg/kg) | mice alive after treatment (in vivo; Dose 0.5 mg/kg) | mice alive after treatment (in vivo; Dose 1.0 mg/kg) | mice alive after treatment (in vivo; Dose 5.0 mg/kg) | mice alive after treatment (in vivo; Dose 10.0 mg/kg) | tolerability compared to FLV3 alone (in vivo; mice) | half-life (in vitro [3]) | half-life (in vitro [4]) | human plasma stability (Plasma stability [5]) | other results |
| --- | --- | --- | --- | --- | --- | --- | --- | --- | --- | --- | --- | --- |
| COC(=O)[C@H]1[C@@H](O)[C@@]2(O)c3c(OC)cc(OCCCCNC(=O)OCC(C)(C)SSCCCCCCCCCCCCCCCCCCOP(=O)([O-])OCC[N+](C)(C)C)cc3O[C@@]2(c2ccc(OC)cc2)[C@@H]1c1ccccc1 [CLR 1852] | (915) | 3/3 | 3/3 | 3/3 | 3/3 | 3/3 | 3/3 | excellent improvement in tolerability | > 6.67 h | > 6.67 h | excellent human plasma stability | Therapeutic Index (TI) [1]: 360; cytotoxic potency compared to FLV3 alone ([1]; various concentrations, FIG. 8 (A549 and NHDF)): modest loss in potency; maximum tolerated dose (MTD) (in vivo; mice): did not achieve a maximum tolerated dose; in vivo therapeutic index (in vivo; mouse, in vivo): at least 25; tumor volume compared to vehicle [2]: reduced the tumor volume beginning at around 27 days; time stable in plasma (Plasma stability [6]; species not given): at least 7 hours |
| CN1/C(=C/C=C2\CCCC(/C=C/C3=[N+](C)c4ccccc4C3(C)C)=C2c2ccc(CCCCCCCCCCCCCCCCCCOP(=O)(O)OCC[N+](C)(C)C)cc2)C(C)(C)c2ccccc21 [CLR 1502] | – | – | – | – | – | – | – | – | – | – | – | time to initial targeting ([7]; 1 mg injected): ≤ 30 min; time to maximum distribution ([7]; 1 mg injected, Pearl Infrared Imaging System): ≤ 24 h; distribution in tumor ([7]; approximately 5.5 hours post injection, 1 mg): the tumor still showed red color |
| COc1ccc([C@@]23Oc4cc(OCCCCNC(=O)OCC(C)(C)SSCCCCCCCCCCCCCCCCCCOP(=O)([O-])OCC[N+](C)(C)C)cc(OC)c4[C@]2(O)[C@H](O)[C@H](C(=O)O)[C@H]3c2ccccc2)cc1 [CLR 1865] | (37.3) | 3/3 | 3/3 | 3/3 | 3/3 | 3/3 | 2/3 | excellent improvement in tolerability | > 6.67 h | 3.32 h | excellent human plasma stability | Therapeutic Index (TI) ([1]; in vitro, NHDF IC50 relative to cancer cell IC50): 11.64; in vivo therapeutic index (in vivo; mice): ≥ 12.5; MTD (in vivo; mouse, in vivo, mice, read-out: maximum tolerated dose (MTD)): 5 to 10 mg/kg; time stable in mouse plasma (Plasma stability [6]; mouse): 3.3 h |
